Positions count from the first letter of the chain named.
T1: DnaD L22A (Bacillus subtilis 168CA, UniProt P39787 1-232, L22A)
T1 sequence: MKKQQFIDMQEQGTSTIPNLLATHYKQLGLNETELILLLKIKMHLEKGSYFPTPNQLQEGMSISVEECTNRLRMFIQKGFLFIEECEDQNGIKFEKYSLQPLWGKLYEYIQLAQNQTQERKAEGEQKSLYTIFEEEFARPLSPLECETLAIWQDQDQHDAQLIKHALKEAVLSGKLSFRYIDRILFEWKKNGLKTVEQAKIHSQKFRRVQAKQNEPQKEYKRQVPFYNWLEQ

T2: DnaD F6A (Bacillus subtilis 168CA, UniProt P39787 1-232, F6A)
T2 sequence: T1 sequence with F6A, A22L

B1: DnaD^1-224 (truncation lacking the DnaB interaction region, the last eight residues) (domain or fragment, Bacillus subtilis, UniProt P39787 1-224, looked up)
chain: MKKQQFIDMQEQGTSTIPNLLLTHYKQLGLNETELILLLKIKMHLEKGSYFPTPNQLQEGMSISVEECTNRLRMFIQKGFLFIEECEDQNGIKFEKYSLQPLWGKLYEYIQLAQNQTQERKAEGEQKSLYTIFEEEFARPLSPLECETLAIWQDQDQHDAQLIKHALKEAVLSGKLSFRYIDRILFEWKKNGLKTVEQAKIHSQKFRRVQAKQNEPQKEYKRQV
notes: DnaD, Bacillus subtilis 168CA, residues 1-224 (lacks the last eight amino acid residues of the C-terminal tail); also called C-terminal truncation; source: E. coli BL21(DE3)-pLysS, purified (HisTrap, SUMO protease digestion, reverse HisTrap)
B2: DnaD (wild-type, Bacillus subtilis DNA replication initiation protein) (natural protein, UniProt P39787 1-232, looked up)
chain: T1 sequence with A22L
notes: DnaD, Bacillus subtilis 168CA, amplified from genomic DNA; full-length protein; Tetramer by SEC-MALS and SEC; in the cryo-EM map only a dimer was seen; also called wild-type DnaD; full length DnaD; source: E. coli BL21(DE3)-pLysS, purified (HisTrap, SUMO protease digestion, reverse HisTrap)
B3: DnaD^1-205 (truncation lacking the entire C-terminal tail) (domain or fragment, Bacillus subtilis, UniProt P39787 1-205, looked up)
chain: MKKQQFIDMQEQGTSTIPNLLLTHYKQLGLNETELILLLKIKMHLEKGSYFPTPNQLQEGMSISVEECTNRLRMFIQKGFLFIEECEDQNGIKFEKYSLQPLWGKLYEYIQLAQNQTQERKAEGEQKSLYTIFEEEFARPLSPLECETLAIWQDQDQHDAQLIKHALKEAVLSGKLSFRYIDRILFEWKKNGLKTVEQAKIHSQK
notes: DnaD, Bacillus subtilis 168CA, residues 1-205 (entire C-terminal tail removed); also called truncation of the DnaD^CTT; source: E. coli BL21(DE3)-pLysS, purified (HisTrap, SUMO protease digestion, reverse HisTrap)

Key:
DnaD L22A = target: T1, DnaD L22A; test: fluorescence polarisation; FP: 10 mM HEPES-KOH pH 7.5, 1 mM Mg acetate, 100 mM K glutamate, 20 C, 10 min, 1.875 nM DNA; crosslinking buffer not in material; details: protein: recombinant; tags: His14-SUMO tag cleaved; label: fluorescein
DnaD F6A = target: T2, DnaD F6A; test: fluorescence polarisation; similar to WT; FP: 10 mM HEPES-KOH pH 7.5, 1 mM Mg acetate, 100 mM K glutamate, 20 C, 10 min, 1.875 nM DNA; crosslinking buffer not in material; details: protein: recombinant; tags: His14-SUMO tag cleaved; chain copies: 2; label: fluorescein
[1] = target: the molecule itself; test: SEC; Superdex 200 Increase 10/300GL, 4°C; 40 mM Tris-HCl pH 8, 500 mM NaCl, 1 mM EDTA, 20 mM imidazole
[2] = target: the molecule itself; test: SEC-MALS; purified DnaD variants; 20°C; 40 mM Tris-HCl pH 8, 500 mM NaCl, 1 mM EDTA, 20 mM imidazole, 2.5% v/v glycerol

| Binder | binding result (DnaD L22A) | stoichiometry N [2] | further results |
| --- | --- | --- | --- |
| TTTTTTTTTTTTTTTTTT (ssDNA) [polyT18 (oCW1088)] | no binding |  | binding result (DnaD F6A): binds |
| B1 |  |  | stoichiometry N [1]: 4 |
| TTTTTTTTTTTTTTTTTTTTTTTTTTTTTTTTTTTTTTTT (ssDNA) [polyT40 (oCW837)] | no binding |  |  |
| B2 |  | 4 |  |
| B3 |  | 4 |  |
